Laboratory results reported in patent US20150344570A1 (published 2015).
Changes are numbered by the printed parent chain. Names and notes keep the numbering of the source.

B1: GpH7-A53/GpH7-B78/GpL16-k0 (antibody, human IgG1, kappa)
heavy 1: QVQLVQSGAEVKKPGASVTVSCKASGYTFTDYEMHWIRQPPGEGLEWIGAIDPKTGDTAYSESFQDRVTLTADKSTSTAYMELSSLTSEDTAVYYCTRFYSYTYWGQGTLVTVSSASTKGPSVFPLAPSSKSTSGGTAALGCLVKDYFPEPVTVSWNSGALTSGVHTFPAVLQSSGLYSLSSVVTVPSSSLGTQTYICNVNHKPSNTKVDKKVEPKSCDKTHTCPPCPAPELLGGPDVFLFPPKPKDTLMISRTPEVTCVVVDVSHEDPEVKFNWYVDGVEVHNAKTKPREEQYNSTYRVVSVLTVLHQDWLNGKEYKCKVSNKALPAPIEKTISKAKGQPREPQVYTLPPSRKELTKNQVSLTCLVKGFYPSDIAVEWESNGQPENNYKTTPPVLDSDGSFFLYSKLTVDKSRWQQGNVFSCSVMHEALHNRYTQKSLSLSP
heavy 2: B1 heavy 1 with A328L, I330E, K354D, R433H, K437E
light: DIVMTQSPLSLPVTPGEPASISCQASESLVHSNRNTYLHWYLQKPGQSPQLLIYKVSNRFSGVPDRFSGSGSGTDFTLKISRVEAEDVGVYYCSQNTHVPPTFGQGTKVEIERTVAAPSVFIFPPSDEQLKSGTASVVCLLNNFYPREAKVQWKVDNALQSGNSQESVTEQDSKDSTYSLSSTLTLSKADYEKHKVYACEVTHQGLSSPVTKSFNRGEC
notes: S239D in one H chain, S239D/A330L/I332E in the other
B2: GpH7-TA7/GpH7-B78/GpL16-k0 (antibody, human IgG1, kappa)
heavy 1: B1 heavy 1 with L232Y, G234W, D237S, S296A
heavy 2: B1 heavy 1 with A328L, I330E, K354D, R433H, K437E
light: B1 light
notes: L234Y/G236W/S298A in one H chain, S239D/A330L/I332E in the other
B3: GpH7-A5/GpH7-HA5/GpL16-k0 (antibody, human IgG1, kappa)
heavy 1: not shown
heavy 2: B1 heavy 1 with L232Y, D237S, P327R, K354D, R433H, K437E
light: B1 light
notes: Anti-glypican-3 IgG1 heterodimer; L234Y and P329R in H2
B4: GpH7-A5/GpH7-HA6/GpL16-k0 (antibody, human IgG1, kappa)
heavy 1: not shown
heavy 2: B1 heavy 1 with G234W, D237S, P327R, K354D, R433H, K437E
light: B1 light
notes: Anti-glypican-3 IgG1 heterodimer; G236W and P329R in H2
B5: GpH7-A5/GpH7-HA11/GpL16-k0 (antibody, human IgG1, kappa)
heavy 1: not shown
heavy 2: B1 heavy 1 with D237S, S296A, P327R, K354D, R433H, K437E
light: B1 light
notes: Anti-glypican-3 IgG1 heterodimer; S298A and P329R in H2
B6: GpH7-A5/GpH7-HA15/GpL16-k0 (antibody, human IgG1, kappa)
heavy 1: not shown
heavy 2: B1 heavy 1 with D237S, P327R, A328L, K354D, R433H, K437E
light: B1 light
notes: Anti-glypican-3 IgG1 heterodimer; A330L and P329R in H2
B7: GpH7-A5/GpH7-HA18/GpL16-k0 (antibody, human IgG1, kappa)
heavy 1: not shown
heavy 2: B1 heavy 1 with D237S, P327R, I330E, K354D, R433H, K437E
light: B1 light
notes: Anti-glypican-3 IgG1 heterodimer; I332E and P329R in H2
B8: GpH7-A48/GpH7-B3-01-15Y/GpL16-k0 (antibody, human IgG1, kappa)
heavy 1: B1 heavy 1 with D237S, P327R
heavy 2: not shown
light: B1 light
notes: Anti-glypican-3 IgG1 heterodimer; P329R in H1, L234Y in H2
B9: GpH7-A48/GpH7-B3-03-20W/GpL16-k0 (antibody, human IgG1, kappa)
heavy 1: B1 heavy 1 with D237S, P327R
heavy 2: not shown
light: B1 light
notes: Anti-glypican-3 IgG1 heterodimer; P329R in H1, G236W in H2
B10: GpH7-A48/GpH7-B3-06-09D/GpL16-k0 (antibody, human IgG1, kappa)
heavy 1: B1 heavy 1 with D237S, P327R
heavy 2: not shown
light: B1 light
notes: Anti-glypican-3 IgG1 heterodimer; P329R in H1, S239D in H2
B11: GpH7-A48/GpH7-B3-15-02A/GpL16-k0 (antibody, human IgG1, kappa)
heavy 1: B1 heavy 1 with D237S, P327R
heavy 2: not shown
light: B1 light
notes: Anti-glypican-3 IgG1 heterodimer; P329R in H1, S298A in H2
B12: GpH7-A48/GpH7-B3-20-08L/GpL16-k0 (antibody, human IgG1, kappa)
heavy 1: B1 heavy 1 with D237S, P327R
heavy 2: not shown
light: B1 light
notes: Anti-glypican-3 IgG1 heterodimer; P329R in H1, A330L in H2
B13: GpH7-A48/GpH7-B3-22-10E/GpL16-k0 (antibody, human IgG1, kappa)
heavy 1: B1 heavy 1 with D237S, P327R
heavy 2: not shown
light: B1 light
notes: Anti-glypican-3 IgG1 heterodimer; P329R in H1, I332E in H2

molecular target: FcγRIIIa F (human, UniProt P08637 17-208); experiment: SPR (Biacore), KD
Sequence (P08637 17-208): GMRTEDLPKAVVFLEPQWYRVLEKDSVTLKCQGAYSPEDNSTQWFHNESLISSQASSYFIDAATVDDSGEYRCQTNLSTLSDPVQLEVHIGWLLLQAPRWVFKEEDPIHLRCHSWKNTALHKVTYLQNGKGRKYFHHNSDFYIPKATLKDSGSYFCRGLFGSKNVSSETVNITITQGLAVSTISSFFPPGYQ

Row | fold decrease of FcγRIIIa-binding activity against GpH7-A57/GpH7-B78/GpL16-k0 [times] | fold FcγRIIIa binding against GpH7-A5/GpH7-B78/GpL16-k0 [times] | Binder
1 | 1.8 | – | B1
2 | – | ≥ 10 | B2

molecular target: T1, FcγRIIIa (human, UniProt P08637 17-208); experiment: SPR (Biacore), antibody captured on antigen-peptide chip, FcγR as analyte; relative binding amount
T1 construct: extracellular domain; also called FcgRIIIa; CD16A; not shown: His tag attached to the C terminus
T1 sequence (P08637 17-208): as above
From the text: The expression vectors for the respective H chains were combined in a way that each of the alterations L234Y, G236W, S298A, S239D, A330L, and I332E is present in the same H chain as P329R or in the different H chain from P329R, and the expression vector GpL16-k0 for the L chain was combined with them. Antibodies of interest were expressed and prepared according to the method described in Reference Example 1. The prepared antibodies were used to assay the FcγRIIIa-binding activity. The result of assessment using P329R on the direction of FcγRIIIa recognition by L234Y, G236W, S298A, S239D, A330L, and I332E is summarized in Table 12.
Analysis of interaction between objective antibody and the FcγR was carried out using Biacore T100 (GE Healthcare). HBS-EP+ (GE Healthcare) was used as the running buffer, and the measurement temperature was set to 25° C. Chips produced by immobilizing the antigen peptide by the amine coupling method to a Series S Sencor Chip CM5 (GE Healthcare), or alternatively, chips produced by allowing preliminarily biotinylated antigen peptides to interact with and immobilize onto a Series S Sensor Chip SA (certified) (GE Healthcare) were used. Antibodies of interest were captured onto an antigen peptide-immobilized chip, and allowed to interact to each FcγR diluted with running buffer. To regenerate and repeatedly use the chip, the antibodies captured on the chip were washed off by reacting 10 mM glycine-HCl, pH 1.5.

Row | FcγRIIIa BINDING ACTIVITY (relative) | Binder
3 | 60 relative, GpH7-A5/GpH7-B3/GpL16-k0 = 100 | B3
4 | 56 relative, GpH7-A5/GpH7-B3/GpL16-k0 = 100 | B4
5 | 84 relative, GpH7-A5/GpH7-B3/GpL16-k0 = 100 | B5
6 | 32 relative, GpH7-A5/GpH7-B3/GpL16-k0 = 100 | B6
7 | 35 relative, GpH7-A5/GpH7-B3/GpL16-k0 = 100 | B7
8 | 11 relative, GpH7-A5/GpH7-B3/GpL16-k0 = 100 | B8
9 | 13 relative, GpH7-A5/GpH7-B3/GpL16-k0 = 100 | B9
10 | 123 relative, GpH7-A5/GpH7-B3/GpL16-k0 = 100 | B10
11 | 47 relative, GpH7-A5/GpH7-B3/GpL16-k0 = 100 | B11
12 | 60 relative, GpH7-A5/GpH7-B3/GpL16-k0 = 100 | B12
13 | 189 relative, GpH7-A5/GpH7-B3/GpL16-k0 = 100 | B13
